Data set [1] addresses T1, mini-vRNAP, non-His-tagged (Bacteriophage N4, UniProt Q859P9 SEQ:2-1107).
T1 chain: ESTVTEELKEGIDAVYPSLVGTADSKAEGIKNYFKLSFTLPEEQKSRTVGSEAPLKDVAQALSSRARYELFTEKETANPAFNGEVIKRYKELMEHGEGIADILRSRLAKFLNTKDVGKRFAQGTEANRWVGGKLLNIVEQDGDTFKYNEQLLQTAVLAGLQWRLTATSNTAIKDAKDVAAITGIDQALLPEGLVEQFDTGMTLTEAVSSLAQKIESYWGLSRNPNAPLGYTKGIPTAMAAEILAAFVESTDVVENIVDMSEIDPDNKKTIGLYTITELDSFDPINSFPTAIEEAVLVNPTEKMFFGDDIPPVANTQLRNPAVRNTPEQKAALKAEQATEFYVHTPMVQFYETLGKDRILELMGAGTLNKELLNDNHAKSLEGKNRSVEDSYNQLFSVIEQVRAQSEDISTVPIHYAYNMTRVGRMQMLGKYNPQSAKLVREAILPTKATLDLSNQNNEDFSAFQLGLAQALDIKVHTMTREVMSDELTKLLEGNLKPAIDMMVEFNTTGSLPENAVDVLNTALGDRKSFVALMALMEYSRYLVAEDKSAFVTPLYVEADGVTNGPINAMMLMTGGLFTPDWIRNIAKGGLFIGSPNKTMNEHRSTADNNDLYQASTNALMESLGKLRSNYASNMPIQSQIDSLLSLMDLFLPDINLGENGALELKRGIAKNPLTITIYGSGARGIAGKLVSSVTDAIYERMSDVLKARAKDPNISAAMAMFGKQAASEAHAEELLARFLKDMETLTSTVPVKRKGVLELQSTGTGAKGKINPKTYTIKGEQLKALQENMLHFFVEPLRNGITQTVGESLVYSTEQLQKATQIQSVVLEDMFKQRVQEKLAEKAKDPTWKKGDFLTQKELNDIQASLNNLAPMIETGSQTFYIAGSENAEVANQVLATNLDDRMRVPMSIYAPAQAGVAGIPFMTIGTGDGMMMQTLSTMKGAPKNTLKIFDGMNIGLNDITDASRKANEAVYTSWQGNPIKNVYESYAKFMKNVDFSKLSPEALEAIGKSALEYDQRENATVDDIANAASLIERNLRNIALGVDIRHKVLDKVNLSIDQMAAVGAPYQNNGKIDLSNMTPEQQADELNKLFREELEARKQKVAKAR
Briefly: pulldown; DNA-affinity column; lower yield than SEQ 16. As to conditions: label: biotin; hairpin. Here is the method:
(§1) This property was used for purification of non-his tagged mini-vRNAP (SEQ ID NO:4) on a DNA-affinity column. The column was prepared by adsorbing a 5′ biotinylated N4 promoter-containing DNA oligonucleotide onto the matrix of a 1 ml HiTrap Streptavidin column (Pharmacia/Amersham Cat.#17-5112-01) according to the manufacturer's instructions. A debris-free sonicate of bacterial cells expressing mini-vRNAP was passed through the column. […] Nucleases in the extract are inhibited by addition of 2 mM EDTA. After washing the column, mini-vRNAP was eluted with warm (25° C.) water; the elution temperature was raised from 4° C. to 25° C. to increase mini-vRNAP recovery. For complete elution, the temperature can be raised up to 43° C. without significant change in the quality of the preparation. Elution under these conditions occurs due to the removal of metal ions and consequent melting of the promoter hairpin and dissociation of mini-vRNAP. Different DNA oligonucleotides containing variants of the P2 promoter (SEQ ID NOS:16-19), were used in DNA-affinity columns and tested in mini-vRNAP affinity purification. The best yield was achieved using the DNA oligonucleotide of SEQ ID NO:16. […]

Data set [2] has as its target T2, mini-vRNAP (N4 virion RNA polymerase central domain) (Bacteriophage N4, UniProt Q859P9 SEQ:38-1143).
T2 chain: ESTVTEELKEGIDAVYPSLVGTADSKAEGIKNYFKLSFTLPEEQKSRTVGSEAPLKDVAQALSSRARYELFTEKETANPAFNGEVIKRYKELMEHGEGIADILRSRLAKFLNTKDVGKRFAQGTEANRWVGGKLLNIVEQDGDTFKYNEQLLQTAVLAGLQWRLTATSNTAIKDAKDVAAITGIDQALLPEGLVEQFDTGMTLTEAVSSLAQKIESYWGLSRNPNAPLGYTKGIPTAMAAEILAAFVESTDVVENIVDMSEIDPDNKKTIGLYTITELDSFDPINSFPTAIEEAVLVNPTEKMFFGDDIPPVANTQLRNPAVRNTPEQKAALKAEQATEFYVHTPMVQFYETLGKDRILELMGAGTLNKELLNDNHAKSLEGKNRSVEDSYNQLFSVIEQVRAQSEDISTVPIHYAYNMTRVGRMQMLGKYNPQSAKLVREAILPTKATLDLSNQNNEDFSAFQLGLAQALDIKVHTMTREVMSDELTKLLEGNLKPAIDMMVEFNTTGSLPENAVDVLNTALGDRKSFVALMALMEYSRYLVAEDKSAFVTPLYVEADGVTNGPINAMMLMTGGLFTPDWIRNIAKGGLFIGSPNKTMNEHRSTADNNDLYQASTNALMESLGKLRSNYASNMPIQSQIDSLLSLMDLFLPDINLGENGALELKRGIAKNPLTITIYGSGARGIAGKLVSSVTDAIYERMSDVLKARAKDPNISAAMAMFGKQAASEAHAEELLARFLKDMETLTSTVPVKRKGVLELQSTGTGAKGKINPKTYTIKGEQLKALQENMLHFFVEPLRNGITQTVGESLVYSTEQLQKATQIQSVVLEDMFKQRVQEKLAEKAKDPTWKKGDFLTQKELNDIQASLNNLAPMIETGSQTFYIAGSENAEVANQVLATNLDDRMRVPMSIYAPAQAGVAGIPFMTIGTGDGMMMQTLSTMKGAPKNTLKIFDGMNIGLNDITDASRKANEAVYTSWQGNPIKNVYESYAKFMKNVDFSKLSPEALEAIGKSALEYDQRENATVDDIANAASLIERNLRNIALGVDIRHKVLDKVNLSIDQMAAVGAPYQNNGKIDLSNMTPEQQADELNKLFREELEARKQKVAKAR
Briefly: filter; stem lengthened by two bp, affinity unchanged. Particulars: tags: N-terminal His6 (pBAD B); TALON and MonoQ; hairpin, 7 bp stem.

Data set [3] concerns the target T2, mini-vRNAP (N4 virion RNA polymerase …). Briefly: filter; wild type affinity; crosslinks. As to conditions: tags: N-terminal His6 (pBAD B); TALON and MonoQ; label: 32P; hairpin. From the text:
To study the sequence determinants of promoter binding, 20 base-long promoter oligonucleotides, containing the wild type vRNAP promoter P2 sequence and substituted at every position with a single 5-Iodo-dU, were used. Whenever substitutions were made in the stem, the corresponding pairing base was changed to A. These oligonucleotides were ³²P end-labeled and used to determine the enzyme's affinity for promoter DNAs by a filter binding assay and the ability to crosslink to mini-vRNAP upon UV irradiation at 320 nm.

Data set [4] shares this target. In words: filter; stem shortened by two bp, affinity unchanged. Particulars: tags: N-terminal His6 (pBAD B); TALON and MonoQ; hairpin, 3 bp stem. Here is the method:
(§2) The effect of changes in the stem length of the hairpin on the ability of mini-vRNAP to bind P2 promoter DNA was analyzed. […] The stem can be shortened by two base pairs without change in the binding affinity. […] No binding is observed if one more nucleotide is removed and the loop cannot form.

Data set [5] has the same target. Briefly: filter; range given for two or one remaining loop-closing bp. As to conditions: tags: N-terminal His6 (pBAD B), TALON and MonoQ, hairpin. As for the experimental part: as §2
For another data set, the target named is T3, mini-vRNAP Y678F (Bacteriophage N4, UniProt Q859P9 SEQ:38-1143).
T3 chain: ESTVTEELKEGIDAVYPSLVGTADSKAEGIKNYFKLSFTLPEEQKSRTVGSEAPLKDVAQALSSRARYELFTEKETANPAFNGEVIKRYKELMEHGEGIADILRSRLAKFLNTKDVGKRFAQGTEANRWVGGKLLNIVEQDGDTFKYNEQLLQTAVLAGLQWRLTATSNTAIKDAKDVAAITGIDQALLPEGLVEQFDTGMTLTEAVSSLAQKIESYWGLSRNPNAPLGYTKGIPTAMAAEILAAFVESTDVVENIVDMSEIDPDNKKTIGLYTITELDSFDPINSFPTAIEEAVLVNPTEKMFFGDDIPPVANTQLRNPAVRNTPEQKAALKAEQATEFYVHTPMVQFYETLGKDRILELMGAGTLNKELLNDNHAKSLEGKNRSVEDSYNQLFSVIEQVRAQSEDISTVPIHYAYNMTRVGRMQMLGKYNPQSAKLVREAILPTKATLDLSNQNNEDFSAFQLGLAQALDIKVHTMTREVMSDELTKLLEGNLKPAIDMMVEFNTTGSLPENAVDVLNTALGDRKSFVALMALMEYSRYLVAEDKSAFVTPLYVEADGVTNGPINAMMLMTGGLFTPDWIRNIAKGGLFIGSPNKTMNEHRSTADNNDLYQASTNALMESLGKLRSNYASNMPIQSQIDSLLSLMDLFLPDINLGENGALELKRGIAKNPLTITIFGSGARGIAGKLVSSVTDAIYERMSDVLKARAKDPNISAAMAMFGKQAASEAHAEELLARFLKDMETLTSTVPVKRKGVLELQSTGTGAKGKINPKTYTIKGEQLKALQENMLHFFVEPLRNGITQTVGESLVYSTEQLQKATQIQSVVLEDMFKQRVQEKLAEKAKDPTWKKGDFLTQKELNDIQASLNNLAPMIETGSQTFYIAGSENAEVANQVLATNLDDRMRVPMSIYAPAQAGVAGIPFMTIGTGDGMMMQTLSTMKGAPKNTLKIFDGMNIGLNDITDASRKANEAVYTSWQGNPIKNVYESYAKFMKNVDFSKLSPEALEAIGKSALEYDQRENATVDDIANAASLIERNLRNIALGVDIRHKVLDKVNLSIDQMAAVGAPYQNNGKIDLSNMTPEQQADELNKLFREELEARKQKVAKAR
Briefly: UV crosslinking as well as wild type enzyme. As to conditions: tags: N-terminal His6; label: 32P; hairpin.

Data set [6] deals with T2, mini-vRNAP (N4 virion RNA polymerase …). In words: filter; no binding when loop cannot form. As to conditions: tags: N-terminal His6 (pBAD B), TALON and MonoQ. As for the experimental part:
as §2

For data set [7] the target is unchanged. In words: filter; two orders of magnitude reduction. Particulars: tags: N-terminal His6 (pBAD B); TALON and MonoQ; hairpin, 8 bp stem.
For data set [8], the target named is T1, mini-vRNAP, non-His-tagged. Briefly: pulldown; DNA-affinity column, pH 5-9, 50 mM-2 M NaCl, 2 mM EDTA in extract; best yield. Particulars: label: biotin; hairpin. Here is the method:
as §1

Data set [9] addresses T1, mini-vRNAP, non-His-tagged. Briefly: pulldown; DNA-affinity column; elutes at lower temperature than SEQ 16. Particulars: label: biotin. Here is the method:
as §1

With GGATCCAAAAGAAGCGGAGCTTC (ssDNA, 5' biotin) [P2 affinity oligo SEQ 18], the binding result in data set [1] is reported as “binds”.
Broadly, the Kd is a measure of binding affinity in units of concentration. Lower therefore signals a tighter complex. In data set [2], TCCAAAAGAAGCGGAGCTTCTT (ssDNA, [none]) [P2 stem lengthened to 7 bp] registered a dissociation constant Kd of roughly 1 nM.
On to TCCAAAAGAAGCGGAGCTTC (ssDNA, 5-iodo-dU at +1) [P2 20-mer 5-iodo-dU at +1], for which the binding result in data set [3] was “binds”.
Consider GGCCATCCATTACTTCATCCAAAAGAAGCGGAGCTTC (ssDNA, 5' biotin) [P2 affinity oligo SEQ 17], for which the binding result in data set [1] is on record as “binds”.
The molecule TCCAAAAGAAGCGGAGCT (ssDNA) [P2 stem shortened to 3 bp] returned a Kd in [4] of roughly 1 nM.
In data set [5] (1 loop-closing bp), TCCAAAAGAAGCGGAG (ssDNA) [P2 stem shortened to 1 bp] returned a Kd of 4.47 nM.
In the case of TCCAAAAGAAGCGGAGCTTC (ssDNA, 5-iodo-dU at +3) [P2 20-mer 5-iodo-dU at +3], the binding result (in [3]; in the data set with mini-vRNAP Y678F) was “binds” throughout.
TCCAAAAGAAGCGGA (ssDNA) [P2 without stem]: the binding result in data set [6] is on record as “no binding”.
For TCCAAAAGAAGCGGAGC (ssDNA) [P2 stem shortened to 2 bp], the Kd in data set [5] (2 bp stem) was 4.47 nM.
Turning to TCCAAAAGAAGCGGAGCTTCTTT (ssDNA, [none]) [P2 stem lengthened, base paired to -2], the binding signal in data set [7] is roughly 100 fold lower affinity.
Consider GGCATTACTTCATCCAAAAGAAGCGGAGCTTC (ssDNA, 5' biotin) [P2 affinity oligo SEQ 16], for which the binding result in data set [8] is listed as “binds”.
As for GGCATTACTTCATCCAAAAGAAGCTGAGCTTC (ssDNA, 5' biotin) [P2 affinity oligo SEQ 19 (loop/stem variant)], the binding result in data set [9] is “binds”.
For TCCAAAAGAAGCGGAGCTTC (ssDNA, 5-iodo-dU at -11 (loop centre)) [P2 20-mer 5-iodo-dU at -11], the binding result in the data set with mini-vRNAP Y678F is reported as “binds”.
As for GGCATTACTTCATCCAAAAGAAGCGGAGC (ssDNA, 5' biotin) [P2 affinity oligo SEQ 20 (shortened stem)], the binding result in data set [9] was “binds”.
For TCCAAAAGAAGCGGAGCTTC (ssDNA, 5-iodo-dU at +2) [P2 20-mer 5-iodo-dU at +2], the binding result in data set [3] is listed as “binds”.

Source of the values: patent US20030096349, “N4 virion single-stranded DNA dependent RNA polymerase” (The University of Chicago, published 2003).
